Key:
[1] = molecular target: 3xFlag-Core R59A (hepatitis C virus genotype 2a, strain JFH1); assay: co-IP; SGR-JFH1 (Huh7 subgenomic JFH1 replicon) cells transfected with 3xFlag-Core (wild type or mutants); anti-Flag M2 agarose, eluted with 3xFLAG peptide; anti-NS5A blot, quantified by IR fluorescence and normalised to precipitated core and expression, three experiments
[2] = molecular target: 3xFlag-Core R50A (hepatitis C virus genotype 2a, strain JFH1); assay: as above
[3] = molecular target: 3xFlag-Core R62A (hepatitis C virus genotype 2a, strain JFH1); assay: as above
[4] = molecular target: Core-Flag-R50A/K51A/R59A/R62A (hepatitis C virus genotype 2a, strain JFH1); assay: co-IP; Huh7.5.1 stable cell lines expressing full-length JFH1-Luc/Neo-Core-Flag genomes (wild type or core mutants); anti-Flag M2 agarose, eluted with 3xFLAG peptide; anti-NS5A blot, quantified by IR fluorescence, three experiments
full-length NS5A-His [5] = molecular target: T1, full-length NS5A-His (hepatitis C virus genotype 2a, strain …, UniProt Q99IB8 1977-2442); assay: pull-down; as a4, proteins treated with 1, 5 or 10 µM BMS-790052 for 30 min at 4°C; details: both partners purified
T1 construct: HCV nonstructural protein 5A (NS5A), genotype 2a strain JFH1, full-length; pET-UbCHis vector; also called recombinant NS5A-His; source: E. coli BL21(DE3)pCG1, purified as described previously [60]; not shown: His6, C-terminal, kept
T1 sequence: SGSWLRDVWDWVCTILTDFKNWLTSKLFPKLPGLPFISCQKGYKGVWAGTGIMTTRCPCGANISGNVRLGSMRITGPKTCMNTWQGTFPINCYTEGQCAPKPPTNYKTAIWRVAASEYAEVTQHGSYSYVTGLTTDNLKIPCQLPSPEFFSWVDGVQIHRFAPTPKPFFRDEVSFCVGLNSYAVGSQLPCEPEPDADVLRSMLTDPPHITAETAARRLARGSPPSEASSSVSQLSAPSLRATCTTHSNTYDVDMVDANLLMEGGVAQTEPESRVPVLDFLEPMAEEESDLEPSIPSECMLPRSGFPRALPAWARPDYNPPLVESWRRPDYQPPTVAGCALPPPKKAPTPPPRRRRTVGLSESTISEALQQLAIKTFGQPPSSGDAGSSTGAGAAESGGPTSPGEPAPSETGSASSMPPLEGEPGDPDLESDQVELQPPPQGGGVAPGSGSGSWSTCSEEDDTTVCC

full-length NS5A-His [6] = molecular target: T1, full-length NS5A-His; assay: pull-down; 4 µg GST protein (bait) mixed with 10 µg NS5A protein in 100 µl binding buffer (50 mM Tris-HCl pH 7.5, 100 mM NaCl, 5 mM MgCl2, 10% glycerol, 0.5% Igepal CA-630, 1 mM DTT), 3 h at 4°C, then glutathione beads 1 h; Western blot (anti-NS5A, anti-Flag), in Figure 3 quantified by IR fluorescence; details: both partners purified

For “subgenomic NS5A (from UniProt Q99IB8 1977-2442) (natural protein)”, the percent reduction in NS5A binding against wild type [1] was 65%, the percent reduction in NS5A binding against wild type [2] was 8% and the percent reduction in NS5A binding against wild type [3] was 17%.

“NS5A from JFH1-Luc/Neo-Core-Flag expressing cells (from UniProt Q99IB8 1977-2442) (natural protein)” was tested, and the percent reduction in NS5A binding against wild-type core [4] was 85%.

B1: GST-Core1-170-His (domain or fragment)
chain: MSTNPKPQRKTKRNTNRRPEDVKFPGGGQIVGGVYLLPRRGPRLGVRTTRKTSERSQPRGRRQPIPKDRRSTGKAWGKPGRPWPLYGNEGLGWAGWLLSPRGSRPSWGPTDPRHRSRNVGKVIDTLTCGFADLMGYIPVVGAPLSGAARAVAHGVRVLEDGVNYATGNLP
notes: HCV core protein, genotype 2a strain JFH1, residues 1-170 (domains D1 and D2); pGEX-2T; also called GST-Core-His; core (D1 and D2 domains); not shown: GST, N-terminal, kept; His6, C-terminal, kept
B1: binds (full-length NS5A-His [5]).

B2: GST-Core-BD2-His (domain or fragment)
chain: PRRGPRLGVRTTRKTSERSQPRGRRQPIPKDRRSTGK
notes: HCV core protein, genotype 2a strain JFH1, residues 38-74 (basic domain 2); linker as in m1; also called GST-Core38-74-His; GST-BD2-His; not shown: GST, N-terminal, kept; His6, C-terminal, kept
B2: binds (full-length NS5A-His [6]).

B3: GST-Core2-23-His (domain or fragment)
chain: STNPKPQRKTKRNTNRRPEDVK
notes: HCV core protein, genotype 2a strain JFH1, residues 2-23 (basic domain 1); linker as in m1; also called BD1; BD1 (2-23); not shown: GST, N-terminal, kept; His6, C-terminal, kept
B3: binds (full-length NS5A-His [6]).

B4: GST-Core101-121-His (domain or fragment)
chain: RGSRPSWGPTDPRHRSRNVGK
notes: HCV core protein, genotype 2a strain JFH1, residues 101-121 (basic domain 3); linker as in m1; also called BD3; BD3 (101-121); not shown: GST, N-terminal, kept; His6, C-terminal, kept
B4: binds (full-length NS5A-His [6]).
